Article PMC6864843 (2019)

Tests used:
[1] = target: Recombinant AAV2 particles (Adeno-Associated Virus serotype 2 capsid) (Adeno-associated virus 2); assay: ELISA; sandwich 'VIRELISA': 10 μg AAVR-His coated per well, AAV2 sample (1.0 × 10^8 v.g. in Table 1) 1 h at RT, blocked with BSA, AAVR-SBP-His probe 1 h in PBST, HRP-streptavidin, ABTS, read at 450 nm; probe concentration, SAV-HRP dilution and ABTS time varied in Table 1
[2] = target: Recombinant AAV1 particles (Adeno-Associated Virus serotype 1 capsid) (Adeno-associated virus 1) (UniProt Q9WBP8); assay: SPR; BIAcore T200; AAV1 particles immobilised on a CM5 chip by amide coupling (in sodium acetate pH 4.5); AAVR flowed at different concentrations, 30 μL/min, 25 °C, 100 mM NaCl in 10 mM HEPES pH 7.4
[3] = target: T1, Recombinant AAV1 particles (Adeno-Associated Virus serotype 1 capsid) (Adeno-associated virus 1, UniProt Q9WBP8 1-736); assay: SPR
T1 chain 1: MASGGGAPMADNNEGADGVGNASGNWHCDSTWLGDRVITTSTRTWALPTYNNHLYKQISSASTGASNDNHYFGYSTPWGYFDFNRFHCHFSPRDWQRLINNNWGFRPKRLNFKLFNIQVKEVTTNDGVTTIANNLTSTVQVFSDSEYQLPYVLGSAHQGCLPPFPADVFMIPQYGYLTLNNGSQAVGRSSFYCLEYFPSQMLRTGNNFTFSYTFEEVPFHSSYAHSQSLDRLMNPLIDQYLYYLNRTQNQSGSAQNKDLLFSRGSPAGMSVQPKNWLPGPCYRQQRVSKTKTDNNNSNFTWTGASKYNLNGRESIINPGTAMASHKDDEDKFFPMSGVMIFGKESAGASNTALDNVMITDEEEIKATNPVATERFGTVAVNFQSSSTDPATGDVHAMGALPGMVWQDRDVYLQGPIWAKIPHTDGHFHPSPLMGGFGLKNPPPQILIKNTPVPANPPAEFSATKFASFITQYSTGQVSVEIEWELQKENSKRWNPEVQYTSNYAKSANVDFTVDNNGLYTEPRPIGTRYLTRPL
T1 chain 2: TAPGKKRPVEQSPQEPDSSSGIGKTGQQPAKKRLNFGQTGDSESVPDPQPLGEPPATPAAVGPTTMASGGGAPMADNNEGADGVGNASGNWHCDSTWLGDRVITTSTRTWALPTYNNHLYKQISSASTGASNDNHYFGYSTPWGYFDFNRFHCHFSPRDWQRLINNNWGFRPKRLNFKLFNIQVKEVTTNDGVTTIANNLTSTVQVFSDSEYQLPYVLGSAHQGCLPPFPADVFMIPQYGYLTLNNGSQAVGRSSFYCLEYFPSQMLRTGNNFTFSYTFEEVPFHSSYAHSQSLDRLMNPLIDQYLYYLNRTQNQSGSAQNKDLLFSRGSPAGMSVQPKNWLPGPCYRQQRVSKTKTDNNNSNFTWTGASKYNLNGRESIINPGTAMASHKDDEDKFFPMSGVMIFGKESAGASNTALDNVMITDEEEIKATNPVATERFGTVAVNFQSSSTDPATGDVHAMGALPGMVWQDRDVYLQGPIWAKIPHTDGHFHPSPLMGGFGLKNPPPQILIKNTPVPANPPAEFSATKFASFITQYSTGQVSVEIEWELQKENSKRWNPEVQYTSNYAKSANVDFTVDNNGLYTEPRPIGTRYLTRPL
T1 chain 3: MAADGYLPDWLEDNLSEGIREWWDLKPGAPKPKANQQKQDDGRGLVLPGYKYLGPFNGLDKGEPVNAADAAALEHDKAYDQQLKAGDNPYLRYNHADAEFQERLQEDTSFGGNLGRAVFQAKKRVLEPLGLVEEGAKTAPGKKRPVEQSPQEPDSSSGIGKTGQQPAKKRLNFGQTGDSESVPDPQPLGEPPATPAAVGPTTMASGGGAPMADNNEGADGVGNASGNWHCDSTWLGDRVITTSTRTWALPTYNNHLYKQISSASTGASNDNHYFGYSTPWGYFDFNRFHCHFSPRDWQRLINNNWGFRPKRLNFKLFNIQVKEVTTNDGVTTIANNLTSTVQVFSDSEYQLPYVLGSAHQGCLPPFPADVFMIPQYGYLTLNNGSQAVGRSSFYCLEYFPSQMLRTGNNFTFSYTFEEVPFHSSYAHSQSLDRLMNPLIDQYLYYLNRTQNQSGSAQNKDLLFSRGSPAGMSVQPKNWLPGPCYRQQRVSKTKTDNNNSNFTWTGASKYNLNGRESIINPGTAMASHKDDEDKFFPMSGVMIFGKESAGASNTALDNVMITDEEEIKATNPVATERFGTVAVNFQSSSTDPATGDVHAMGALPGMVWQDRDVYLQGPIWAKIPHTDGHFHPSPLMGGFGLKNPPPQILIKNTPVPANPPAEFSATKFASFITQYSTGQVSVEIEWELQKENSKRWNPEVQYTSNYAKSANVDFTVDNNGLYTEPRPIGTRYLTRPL

Recombinant AAV2 particles (Adeno-Associated Virus serotype 2 capsid) (Adeno-associated virus 2), sequence (O56652 whole entry, chain 1 of 3): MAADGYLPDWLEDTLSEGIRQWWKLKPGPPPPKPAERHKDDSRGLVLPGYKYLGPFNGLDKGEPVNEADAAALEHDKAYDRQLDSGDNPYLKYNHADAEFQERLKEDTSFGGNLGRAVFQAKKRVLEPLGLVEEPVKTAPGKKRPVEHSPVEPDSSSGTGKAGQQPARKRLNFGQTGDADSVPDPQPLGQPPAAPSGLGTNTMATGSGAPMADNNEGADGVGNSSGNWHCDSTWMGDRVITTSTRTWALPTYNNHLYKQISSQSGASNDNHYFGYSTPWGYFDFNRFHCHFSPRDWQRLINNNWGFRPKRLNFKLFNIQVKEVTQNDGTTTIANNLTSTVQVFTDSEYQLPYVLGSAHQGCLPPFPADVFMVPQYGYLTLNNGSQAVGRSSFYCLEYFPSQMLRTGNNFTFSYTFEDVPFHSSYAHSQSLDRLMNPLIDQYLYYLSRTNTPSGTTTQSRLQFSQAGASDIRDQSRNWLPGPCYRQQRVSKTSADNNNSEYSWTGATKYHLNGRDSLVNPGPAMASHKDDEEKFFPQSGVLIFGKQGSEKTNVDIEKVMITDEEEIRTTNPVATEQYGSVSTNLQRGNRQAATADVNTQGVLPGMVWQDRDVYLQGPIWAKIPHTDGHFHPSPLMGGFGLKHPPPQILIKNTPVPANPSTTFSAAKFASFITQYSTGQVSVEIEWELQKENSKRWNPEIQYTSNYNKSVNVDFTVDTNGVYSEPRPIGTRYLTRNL
Recombinant AAV2 particles (Adeno-Associated Virus serotype 2 capsid) (Adeno-associated virus 2), sequence (P03135 139-735, tags left off, chain 2 of 3, further chain): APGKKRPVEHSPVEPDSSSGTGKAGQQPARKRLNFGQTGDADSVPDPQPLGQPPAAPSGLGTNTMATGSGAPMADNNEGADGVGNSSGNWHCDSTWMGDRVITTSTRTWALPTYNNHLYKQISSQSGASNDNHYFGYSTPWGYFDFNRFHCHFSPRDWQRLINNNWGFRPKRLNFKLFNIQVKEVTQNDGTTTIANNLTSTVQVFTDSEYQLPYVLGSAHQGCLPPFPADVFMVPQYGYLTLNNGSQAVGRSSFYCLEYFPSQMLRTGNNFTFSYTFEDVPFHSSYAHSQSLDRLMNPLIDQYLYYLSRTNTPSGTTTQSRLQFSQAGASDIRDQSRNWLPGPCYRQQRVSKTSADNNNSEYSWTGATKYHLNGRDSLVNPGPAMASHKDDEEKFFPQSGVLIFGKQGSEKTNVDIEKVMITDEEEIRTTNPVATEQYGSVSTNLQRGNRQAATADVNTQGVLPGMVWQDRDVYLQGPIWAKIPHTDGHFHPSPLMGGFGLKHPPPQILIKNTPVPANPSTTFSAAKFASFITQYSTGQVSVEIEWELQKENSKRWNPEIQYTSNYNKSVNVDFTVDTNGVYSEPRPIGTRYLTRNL
Recombinant AAV2 particles (Adeno-Associated Virus serotype 2 capsid) (Adeno-associated virus 2), sequence (P03135 203-735 limits assumed, chain 3 of 3, further chain): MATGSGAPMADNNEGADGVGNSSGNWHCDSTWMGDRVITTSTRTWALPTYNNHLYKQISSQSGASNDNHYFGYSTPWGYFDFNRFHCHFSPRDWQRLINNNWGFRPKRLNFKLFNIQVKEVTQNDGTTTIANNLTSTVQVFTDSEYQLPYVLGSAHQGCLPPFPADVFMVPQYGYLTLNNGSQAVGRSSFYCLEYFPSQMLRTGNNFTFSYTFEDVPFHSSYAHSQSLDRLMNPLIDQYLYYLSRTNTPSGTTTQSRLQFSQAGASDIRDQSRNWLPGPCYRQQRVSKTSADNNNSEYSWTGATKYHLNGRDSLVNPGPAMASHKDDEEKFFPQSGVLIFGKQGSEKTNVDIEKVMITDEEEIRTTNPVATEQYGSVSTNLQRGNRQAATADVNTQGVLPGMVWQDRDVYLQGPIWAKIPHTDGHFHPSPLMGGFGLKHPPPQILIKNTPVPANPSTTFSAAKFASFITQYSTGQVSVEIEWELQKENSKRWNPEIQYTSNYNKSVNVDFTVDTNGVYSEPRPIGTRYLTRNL

AAVR-SBP-His (AAVR PKD domains 1–5 with C-terminal streptavidin binding peptide and 6× His-tag in tandem) (domain or fragment)
absorbance at 450 nm, AAVR-SBP-His 50 μg/mL (absorbance (450 nm)) [1]: 0.662
absorbance at 450 nm, AAVR-SBP-His 100 μg/mL (absorbance (450 nm)) [1]: 0.861
absorbance at 450 nm, ABTS incubating time 10 min (absorbance (450 nm)) [1]: 0.32
absorbance at 450 nm, ABTS incubating time 15 min (absorbance (450 nm)) [1]: 0.663
absorbance at 450 nm, ABTS incubating time 20 min (absorbance (450 nm)) [1]: 0.819
absorbance at 450 nm, ABTS incubating time 30 min (absorbance (450 nm)) [1]: 1.33
absorbance at 450 nm, SAV-HRP dilution 1/1000 (absorbance (450 nm)) [1]: 0.872
absorbance at 450 nm, SAV-HRP dilution 1/2000 (absorbance (450 nm)) [1]: 0.798
absorbance at 450 nm, SAV-HRP dilution 1/5000 (absorbance (450 nm)) [1]: 0.662

Soluble recombinant AAVR (analyte of the BIAcore assay) (domain or fragment)
Kd [2]: 255 nM

B1: Soluble recombinant AAVR (analyte of the BIAcore assay) (domain or fragment)
chain: SAGESVQITLPKNEVQLNAYVLQEPPKGETYTYDWQLITHPRDYSGEMEGKHSQILKLSKLTPGLYEFKVIVEGQNAHGEGYVNVTVKPEPRKNRPPIAIVSPQFQEISLPTTSTVIDGSQSTDDDKIVQYHWEELKGPLREEKISEDTAILKLSKLVPGNYTFSLTVVDSDGATNSTTANLTVNKAVDYPPVANAGPNQVITLPQNSITLFGNQSTDDHGITSYEWSLSPSSKGKVVEMQGVRTPTLQLSAMQEGDYTYQLTVTDTIGQQATAQVTVIVQPENNKPPQADAGPDKELTLPVDSTTLDGSKSSDDQKIISYLWEKTQGPDGVQLENANSSVATVTGLQVGTYVFTLTVKDERNLQSQSSVNVIVKEEINKPPIAKITGNVVITLPTSTAELDGSKSSDDKGIVSYLWTRDEGSPAAGEVLNHSDHHPILFLSNLVEGTYTFHLKVTDAKGESDTDRTTVEVKPD
koff [3]: 0.00184 s⁻¹
